Data published in the supplement of paper PMC9170038.

tested on: MS2 coat protein; test: apparent KD of MS2 coat protein; higher = weaker reporter binding; details: Eterna round: R107; input ligand: theophylline 20 uM
How it was run: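 In 100 mM Tris-HCl pH 7.5 with 80 mM KCl and 4 mM MgCl2, and without or with constant ligand, SNAP-549-labelled MS2 coat protein was titrated in twofold steps from 0.7 or 1.5 nM to 3 µM. Per-step times went from 0.8–1.5 h down to 10–20 min. The RNA switches were transcribed on-chip from Illumina sequencing clusters, and apparent KD is the per-design median of normalised cluster binding-curve fits.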

**Q.** Which “apparent KD of MS2 coat protein” value does the source give for “AAUAAUAAGGCGGCCGCCACUAAACAUGAGGAUCACCCAUGUCUCGAGGGCUUGCGUUUGGGAAGUAGGACCGGGCCAAUAAUAA [Exclusion - Tryptophan B (Freestyle 6)]” here?
**A.** 18.8 nM

**Q.** With “UCCUACACGGAGACGUGUAGGAGUAAUGAUACCAGCAUGGAGACAUGCCCUUGGCAGCGUUACAUGAGGAUCACCCAUGUGGUGC [ETHA #7]” as the sequence, how does the “apparent KD of MS2 coat protein” value read?
**A.** 26.2 nM

**Q.** “GAUGAACUAUUUGAUACCAGACUACAUGAGGAUCACCCAUGUGUGUUUAUACUUCUGUCAGUCCCUUGGCAGCAAAUAGUUUAUC [XTheo B #4]” was tested. Which “apparent KD of MS2 coat protein” value did it give?
**A.** 95.2 nM

**Q.** With “AAAGGUCGGACGGCCGCCACUGGCUAGGUGGGUUCCGGGAUUACAUGAGGAUCACCCAUGUAUACCAGGACCGGGUUCGCCUCGU [Lageonor]” as the sequence, how does the “apparent KD of MS2 coat protein” value read?
**A.** 12.2 nM

**Q.** With “CUAUGCAGGUCGGCCGCCACUACACACAUGAGGAUCACCCAUGUAGUUACUGGGUGAAGUGGCAGUAGGACCGGGACCUGCACAC [Brourdmod18]” as the sequence, how does the “apparent KD of MS2 coat protein” value read?
**A.** 458 nM

**Q.** For “UGUAACAUGAGGAUCACCCAUGUAAGUGAUACCAGAUAAGUAGUAGUCCCUUGGCAGCAUAUUGGGAAAGUGUAUAGUCUAUACG [Same State - Theophylline A (Freestyle 5)]”, which “apparent KD of MS2 coat protein” value is on record?
**A.** 75.3 nM

**Q.** How did the “apparent KD of MS2 coat protein” value turn out when “UUAAUCAUGUUAGAAAACUAAUAUGCAGAAGGAGCGUGAUAAAACACAGGUAGGUCGCUGAAGGGAACAUGAGGAUCACCCAUGU [AstrosSSArgA#9]” was run?
**A.** 43.6 nM

**Q.** How did the “apparent KD of MS2 coat protein” value turn out when “UACAAACAUGAGGAUCACCCAUGUAGUGAUACCAGCAUAACAGAUUGCCCUUGGCAGCACCGGUUUGUACUCAAACGAAGUACGG [theeternabot_sameState_MS2_Theo_A_36]” was run?
**A.** 86.2 nM

**Q.** How did the “apparent KD of MS2 coat protein” value turn out when “GAUGAACUAUGUGAUACCAGACAACAUGAGGAUCACCCAUGUGCGCGUCGUCCUCUGCCUGUCCCUUGGCAGCGUAUAGUUUAUC [XTheo B #13]” was run?
**A.** 110 nM

**Q.** Which “apparent KD of MS2 coat protein” value does the source give for “UAAAUAAUCUGGGUGUAGGUAAUAACAGAUACCAGCCAGAUAACUGGCCCUUGGCAGCUGAUAACAUGAGGAUCACCCAUGUAAA [Mat - Same State Theophlline A - Mod of Eli - D20]” here?
**A.** 114 nM

**Q.** Which “apparent KD of MS2 coat protein” value does the source give for “AAAAUCCUACCUGAGGAUCACCCAGGUGAAGGAGCGCCCGAAAGGGCAGGUAGGUCGCACCUGAGGAUCACCCUGGUAACCUAAA [ArgEX 11 #DoubleMS2 #OpenEnded #AlternativeMS2]” here?
**A.** 69 nM

**Q.** “UAUCGAGGUACAUGAGGAUCACCCAUGUAUCGAGGACCGGUACGGCCGCCACUCGAUAAUGGCGGAUCGUUAGUCCUCUUCGAUA [Tryp A Ex 4b]” was tested. Which “apparent KD of MS2 coat protein” value did it give?
**A.** 14 nM

**Q.** “ACAUGAGGAUCACCCAUGUAAAUAACGGAAGGAGCGUGCAAAAGCACAGGUAGGUCGCCGAUAUAAAUAUUGGGUAUUAUAUUAU [AstrosExyArgA#2]” was tested. Which “apparent KD of MS2 coat protein” value did it give?
**A.** 39.3 nM

**Q.** How did the “apparent KD of MS2 coat protein” value turn out when “CCGACGAUGACUAUGGGUCAGGAGUGCGCACGAGGACCGGUACGGCCGCCACUCGAGGAGUGGGACAUGAGGAUCACCCAUGUGG [X-TryptA-MS2@65]” was run?
**A.** 73.7 nM

**Q.** For “UGAGUUAGACAAAAGUCUAGCUCUGGUGAAGGAGCGUCCGAAAGGACAGGUAGGUCGCACCACCUGAGGAUCACCCAGGUUCCUA [ArgAS 14 #OpenEnded #AlternativeMS2]”, which “apparent KD of MS2 coat protein” value is on record?
**A.** 29.8 nM

**Q.** Which “apparent KD of MS2 coat protein” value does the source give for “GUGAAGUUAGUGAGCGUUAGUCAAGCCAAACGAGGACCGGUACGGCCGCCACUCGCGCAUCGACAUGAGGAUCACCCAUGUGCCG [theeternabot_exclusion_MS2_Trp_A_12]” here?
**A.** 15.7 nM

**Q.** For “UAUAAAAUAACAGAUACCAGCGUGUUAUAAAACAUGAGGAUCACCCAUGUAGUGAUCAAGCGCCCUUGGCAGCUGGUAUUUUAUA [7.B]”, which “apparent KD of MS2 coat protein” value is on record?
**A.** 150 nM

**Q.** “AUAAGUAAUGUUUCGUGUAUUAUUACAGAUACCAGACUAUCCUAUGUCCCUUGGCAGCUGGAUUACAUGAGGAUCACCCAUGUUG [JR_ExcTheophyA_Sub001]” was tested. Which “apparent KD of MS2 coat protein” value did it give?
**A.** 20.3 nM

same assay, conditions: Eterna round: R107; input ligand: theophylline 2 mM

**Q.** Which “apparent KD of MS2 coat protein” value does the source give for “AGCGGCUCGAAAGAGUCGCACUCAUGUGAAGGAGCGCCCGUUAGGGCAGGUAGGUCGCACAUGAGGAUCACCCAUGUACCUUCUA [MAT - Exclusion Arginine A - Mod of Eli - D19]” here?
**A.** 312 nM

**Q.** Which “apparent KD of MS2 coat protein” value does the source give for “ACAUGAGGAUCACCCAUGUGCAUCACCCGACGAGGACCGGUACGGCCGCCACUCGGGUAUAUAUUUACAUCGGGUGAUUUUACGU [#24 Tryptophan A Same State]” here?
**A.** 51.8 nM

**Q.** “AGCCGGAUUACGGCCGCCACUGUAGACGUGACGAAAGUCGCGUCAACAUGAGGAUCACCCAUGUACAGGACCGGGUGGUCAGGCG [Omei Tryp B SS A v4]” was tested. Which “apparent KD of MS2 coat protein” value did it give?
**A.** 464 nM

**Q.** For “CCCUCGUCAACGGCCGCCACUGUGAUUCACUAAGAUAAUAUUGCACAUGAGGAUCACCCAUGUCUCAGGACCGGGUUGGUGUGUC [theeternabot_sameState_MS2_Trp_B_38]”, which “apparent KD of MS2 coat protein” value is on record?
**A.** 131 nM

**Q.** With “GGUAUGUAUUCGGAAACGAAUGCAUACCAACGAGGACCGGUACGGCCGCCACUCGGCCGUGAUCAACAUGAGGAUCACCCAUGUA [Ex Tryptophan A 6]” as the sequence, how does the “apparent KD of MS2 coat protein” value read?
**A.** 20.2 nM

**Q.** For “UGAUGGUGCUGAAGGAGCGUGUAAGAACAAGAACAUGAGGAUCACCCAUGUAUUAAUUUAACACAGGUAGGUCGCGGUGUUAUUG [11.L]”, which “apparent KD of MS2 coat protein” value is on record?
**A.** 45.8 nM

**Q.** With “AGCUCGCUUCCUCAAGCGUCAAAGACGCGUCGAGGACCGGUACGGCCGCCACUCGACCUGAGGAUCACCCGGGUCUAAGCGAGCA [TrypAX 8 #SwitchBubble #AlternativeMS2 #MS2Late #CuTurnoff]” as the sequence, how does the “apparent KD of MS2 coat protein” value read?
**A.** 177 nM

**Q.** For “AUUUAUUAGACGGCCGCCACUUGAAAGAGACCUCAUAAAUGGGAACAUGAGGAUCACCCAUGUAAGAGGACCGGGUCUAGUAGAU [TryptB-ms2@45]”, which “apparent KD of MS2 coat protein” value is on record?
**A.** 1320 nM

**Q.** For “AAUUUUCACGGAAGGAGCGUCACGUAAUUCAUACAUGAGGAUCACCCAUGUUAGUGGUAGAGACAGGUAGGUCGCCGUUAUUUGA [JR_AAArginiB_Sub026]”, which “apparent KD of MS2 coat protein” value is on record?
**A.** 20.3 nM

**Q.** For “AUAAUAGGGAUAAUUAGUUUUAGGUCCAGUCGAGGACCGGUACGGCCGCCACUCGUACAGAAAUACAUGAGGAUCACCCAUGUUA [JR_SSTryptoA_Sub005]”, which “apparent KD of MS2 coat protein” value is on record?
**A.** 15.1 nM

**Q.** How did the “apparent KD of MS2 coat protein” value turn out when “UGGUGUAGGGUAAAUAGGCUGAGUACAGAAGGAGCGCGAAUAAACGCAGGUAGGUCGCUGGACUCCACAUGAGGAUCACCCAUGU [Same State Arginine A GF 28]” was run?
**A.** 23.3 nM

**Q.** With “ACAUGAGGAUCACCCAUGUAUGAUGUUCCUCGAGGACCGGUACGGCCGCCACUCGAACGAGUGGCACGCGAGUGCGCACUCGCGU [aXa]” as the sequence, how does the “apparent KD of MS2 coat protein” value read?
**A.** 14.9 nM

**Q.** With “UCACUCUGGGUGAAUUCCGGAGAUGUGGAAGGAGCGGACGAAAGUCCAGGUAGGUCGCCAUCGGACAUGAGGAUCACCCAUGUAC [Same State - Arginine A (Freestyle 23)]” as the sequence, how does the “apparent KD of MS2 coat protein” value read?
**A.** 131 nM

**Q.** Which “apparent KD of MS2 coat protein” value does the source give for “AAUAAUAAGGCGGCCGCCACUAAACAUGAGGAUCACCCAUGUCUCGAGGGCUUGCGUUUGGGAAGUAGGACCGGGCCAAUAAUAA [Exclusion - Tryptophan B (Freestyle 6)]” here?
**A.** 20.4 nM

**Q.** How did the “apparent KD of MS2 coat protein” value turn out when “UCCUACACGGAGACGUGUAGGAGUAAUGAUACCAGCAUGGAGACAUGCCCUUGGCAGCGUUACAUGAGGAUCACCCAUGUGGUGC [ETHA #7]” was run?
**A.** 270 nM

**Q.** With “AAAGGUCGGACGGCCGCCACUGGCUAGGUGGGUUCCGGGAUUACAUGAGGAUCACCCAUGUAUACCAGGACCGGGUUCGCCUCGU [Lageonor]” as the sequence, how does the “apparent KD of MS2 coat protein” value read?
**A.** 8.28 nM

**Q.** “CUAUGCAGGUCGGCCGCCACUACACACAUGAGGAUCACCCAUGUAGUUACUGGGUGAAGUGGCAGUAGGACCGGGACCUGCACAC [Brourdmod18]” was tested. Which “apparent KD of MS2 coat protein” value did it give?
**A.** 619 nM

**Q.** For “UUAAUCAUGUUAGAAAACUAAUAUGCAGAAGGAGCGUGAUAAAACACAGGUAGGUCGCUGAAGGGAACAUGAGGAUCACCCAUGU [AstrosSSArgA#9]”, which “apparent KD of MS2 coat protein” value is on record?
**A.** 37.3 nM
